PMC7641749 (Nucleic Acids Research, 2020)
Several values for one entry are separate records, joined by “and”; a condition that tells them apart may be missing. Identical values can stand only once.

Target: human ERH (residues 1–104), His6-tagged (human, UniProt P84090 1-104)
Experiment: ITC

Chain of human ERH (residues 1–104), His6-tagged (P84090 whole entry, the tested form may be a part): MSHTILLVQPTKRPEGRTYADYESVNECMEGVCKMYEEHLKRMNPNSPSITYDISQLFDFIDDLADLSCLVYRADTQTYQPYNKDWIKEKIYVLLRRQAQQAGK

PRTARHAPAVRKFSPDLKLLKDVKISVSFTE [His6-SUMO tagged DGCR8^96–126]
Kd: ~19.6 µM and ~19.7 µM | stoichiometry N: 0.965
